This is an account of results in the supplement of paper PMC10126150.

± gives the standard deviation of the averaged measurements.
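Note: ATP exposure 15 min at 22 °C before imaging.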

This series has as its system ATP. Description: switch fluorescence ratio, 500 uM ATP over buffer (Cy3 cluster intensity, sum of 5 cycles each) (fold (ratio)); higher = stronger signal-on switching upon ATP binding; sequences stand for … in TCGTCGGCAGCGTCAGATGTGTATAAGAGACAGTTTTTTTTTTTTTTTTTTTTTTTTT…TC. As to conditions: aptamer strand: ATP DNA aptamer (quencher-CACCTGGGGGAGTATTGCGGAGGAAGG + anchor), 100 nM annealed; ATP concentration: 500 uM. The method in brief:
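Imaging in selection buffer was followed by imaging after 15 min with 500 uM ATP at 22 °C, for Cy3-labelled switching-strand clusters annealed to 100 nM quencher-labelled ATP aptamer on a modified Illumina MiSeq flow-cell. Five of these buffer/ATP cycles ran, separated by NaOH stripping and re-annealing. The fluorescence ratio per cluster is summed target-cycle over summed buffer-cycle Cy3 intensity, averaged per switch-domain sequence; clusters outside 100-1000 RFU were removed.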
Take GCATCCGTCG: the switch fluorescence ratio is 1.04 ± 0.031. The same measure for GGGGCTTATC: 1.03 ± 0.043; for GGAGAATATT: 1.02 ± 0.059; for GTGGGGCATT: 0.9905 ± 0.0086. For the sequence GTTGTGAGAG, the switch fluorescence ratio was 0.999 ± 0.054. For the sequence ACGGTGGGGG, the switch fluorescence ratio was determined as 1.01 ± 0.025. The result for GTTAGGGTAG reads 0.992 ± 0.025.

Take TTTATATTCT: the switch fluorescence ratio came out at 1.03 ± 0.074.

As to TTTGGTATGA, the switch fluorescence ratio is 0.9736 ± 0.0021. The same measure for GCGAGGCCGT: 1 ± 0.056; for AAGAAAACTT: 1.042 ± 0.0089; for CATTGGAGTC: 0.998 ± 0.043. AGGGAAACGG: the switch fluorescence ratio is 0.96 ± 0.018. The result for ATGGGTCCAG reads 1.01 ± 0.019. TGATACTGCT: the switch fluorescence ratio came to 0.961 ± 0.035. The result for CGACGAGGGG reads 1 ± 0.03. The result for TGAACTTGCT reads 1.02 ± 0.074; that for TAGGGGGACG, 1.04 ± 0.068; that for ACACCTCATA, 1.1 ± 0.039.

On to TGAGTATAGG, for which the switch fluorescence ratio stood at 1.009 ± 0.003. The same measure for TCAAAGCCCT: 1.03 ± 0.03; for GTATTTACAT: 0.9862 ± 0.0048. In the case of GAGTACCCGG, the switch fluorescence ratio was determined as 1 ± 0.018. As for ACACTAGGGC, the switch fluorescence ratio amounted to 1.04 ± 0.02.

With TGATTGGTGG, the switch fluorescence ratio was 1.01 ± 0.041. The result for TTCTCTAGAT reads 1.056 ± 0.0066. The same measure for TTTCAAATCT: 1.026 ± 0.0019; for AAAGCCTTGG: 0.973 ± 0.021. As for ACTGGGATCA, the switch fluorescence ratio came to 1.03 ± 0.02. With CAGAGGGCTA, the switch fluorescence ratio turned out to be 1.03 ± 0.038. The same measure for TCGATGTGTT: 0.9592 ± 0.0086. The result for GTTTTTATGA reads 0.973 ± 0.017. For ATTATATCCC, the switch fluorescence ratio came out at 1.06 ± 0.026.

Take TTTGGGATGT: the switch fluorescence ratio worked out at 1.02 ± 0.073. The same measure for TTTTGAGGGG: 1.01 ± 0.042; for TAAAGCGAAC: 1.29 ± 0.098; for ATTGTACGGT: 1.03 ± 0.013. For the sequence GAAATTCCGA, the switch fluorescence ratio is 1.85 ± 1.1.

GAGAGGATGG: the switch fluorescence ratio is 0.984 ± 0.042. For CGTTATAGTC, the switch fluorescence ratio came to 1.02 ± 0.047. The same measure for TTATTTATGT: 1 ± 0.012; for GGGCATTGTT: 1.02 ± 0.043.

As to ACTTTTTGGC, the switch fluorescence ratio amounted to 0.975 ± 0.022. The result for TCTTAAGGGC reads 0.972 ± 0.01. The result for TGGGGTCGGC reads 0.987 ± 0.021.

In the case of GCTGTAAAGA, the switch fluorescence ratio was determined as 0.983 ± 0.029. As to GGAGGGGGGT, the switch fluorescence ratio turned out to be 1.01 ± 0.023. The same measure for TCCTTCTTTA: 1.38 ± 0.43; for AAAGGATTTG: 0.97 ± 0.0034; for GTAACTAATG: 1.02 ± 0.02. The result for ATGGTTGAGG reads 0.987 ± 0.031. In the case of CAGGGGGGG, the switch fluorescence ratio turned out to be 1 ± 0.011.

Take TAGAAGGGGA: the switch fluorescence ratio came out at 0.994 ± 0.044.

ACACGGGCCT: the switch fluorescence ratio came to 1.03 ± 0.062.

Take TTTGGTTGTG: the switch fluorescence ratio was 0.986 ± 0.018. As for ACAACGGGGG, the switch fluorescence ratio is 1.05 ± 0.025. The result for GACGGTTGAG reads 1.025 ± 0.0057; that for ATCGTGTTGT, 1.02 ± 0.015. Turning to CATGCGGCCG, the switch fluorescence ratio worked out at 0.992 ± 0.02. The result for GGGGGGGACA reads 0.984 ± 0.031.

Turning to GTAGCAGGGG, the switch fluorescence ratio worked out at 1.3 ± 0.068. Regarding ACACCCGCGC, the switch fluorescence ratio stood at 1.45 ± 0.064. Turning to ACTAGGGTGC, the switch fluorescence ratio was 1.14 ± 0.014. The result for TGGTTTGCCG reads 1.01 ± 0.049; that for GTGGGGTCCG, 0.99 ± 0.046; that for AGGTTGAAGC, 0.993 ± 0.017. The result for TCATACGTCG reads 1.03 ± 0.036; that for CCCCAGAGCT, 1.66 ± 0.066. The result for AACCCACATC reads 1.303 ± 0.002; that for CTGGTACGAC, 1.13 ± 0.016. AATAATGGTT: the switch fluorescence ratio was found to be 1.01 ± 0.013. The same measure for AGGTTGAGGG: 0.984 ± 0.025; for GCCGGGACCG: 1.024 ± 0.01.

For the sequence AAAGTGCTCC, the switch fluorescence ratio came to 1.095 ± 0.0075. As to AGGTTGTCAA, the switch fluorescence ratio amounted to 0.969 ± 0.028.

As for TGGGAGGGGG, the switch fluorescence ratio was determined as 0.991 ± 0.036. The same measure for TCCGGGGGAT: 1.32 ± 0.38. Turning to GTGCGCCGGT, the switch fluorescence ratio came out at 1.02 ± 0.036. Take CGTGTGTGTA: the switch fluorescence ratio stood at 1.07 ± 0.05. The same measure for AGAAGGTATG: 1.0001 ± 0.0006; for AGGGGGGGGT: 1 ± 0.05. The same measure for AGGTCAGCCT: 1.03 ± 0.029.

For the sequence TTTCTGTTTT, the switch fluorescence ratio was 0.9913 ± 0.0088. The same measure for CCGTGGTACC: 1.84 ± 0.12; for GGATCCGAGC: 1.03 ± 0.033.

With ACATAGTTGG, the switch fluorescence ratio turned out to be 0.966 ± 0.024. For the sequence ACTAGTGCGG, the switch fluorescence ratio amounted to 1.01 ± 0.028.

Take GAAGTTGTCA: the switch fluorescence ratio stood at 1.02 ± 0.047. With TGGGAAGGTT, the switch fluorescence ratio amounted to 1.02 ± 0.041. The result for CGAAATGGCG reads 1.053 ± 0.0038; that for CTATACGGCA, 1.09 ± 0.011; that for TACTAGGTTT, 0.977 ± 0.019. GAGTTTTCTA: the switch fluorescence ratio came to 0.9987 ± 0.0081.

GGGTCGGCCG: the switch fluorescence ratio was 0.983 ± 0.033. The result for GTTAAGAAAG reads 1.01 ± 0.012; that for ATAGTCTTTT, 1.02 ± 0.034; that for GTAAGGAAAT, 1.013 ± 0.0024. The same measure for ACAAGGGGCG: 1.05 ± 0.079; for ATAGCGCCGT: 1.01 ± 0.011; for CCATTAATAG: 1.04 ± 0.057.

On to CGCATATGTA, for which the switch fluorescence ratio was 1.08 ± 0.033. For the sequence TTTTAACAGG, the switch fluorescence ratio was 1.02 ± 0.08.

With GGGTGGTTAC, the switch fluorescence ratio was 0.99 ± 0.044. For AGAAGGCGCG, the switch fluorescence ratio is 1.01 ± 0.038. The same measure for GGGCAATCGT: 1.021 ± 0.0063; for GAAGGGCAGT: 0.966 ± 0.029; for TATTTACGGG: 0.9931 ± 0.0065.

Consider TGGGTTTTGG, for which the switch fluorescence ratio turned out to be 0.997 ± 0.052. The result for AACTTTCCGA reads 2.36 ± 0.39. With TCTGGTAGAG, the switch fluorescence ratio came to 1.02 ± 0.023.

With ATAAAGTGGA, the switch fluorescence ratio stood at 0.984 ± 0.044. As for AGATATTTTT, the switch fluorescence ratio worked out at 0.975 ± 0.023. Regarding AAAGGTGCGG, the switch fluorescence ratio was determined as 0.9931 ± 0.0063. The same measure for GTGATTCGGG: 0.972 ± 0.013.

For CCAAGCGCCG, the switch fluorescence ratio worked out at 1.12 ± 0.13. The same measure for GTTTCGAGGT: 0.96 ± 0.012. For TTAGATTCGG, the switch fluorescence ratio came to 0.997 ± 0.039. The result for CCAATCCAGT reads 1.01 ± 0.013. The result for GTGAGTTGGG reads 1.01 ± 0.014. The result for GGGGCCGGCG reads 1.08 ± 0.11.
